Results taken from patent publication US9096835B2, “DNA polymerase” (Medical Research Council, priority 2003, dated 2015).
“Also recorded” adds a separate entry of the source.

Tests used:
[1] = tested on: primers with 3′ transversion mismatches; assay: Mismatch extension PCR assay; assay type: biochemical; details: G•A, C•C, G•G mismatched primers
Procedure: (§1) A PCR assay was used to screen and rank clones. Briefly, clones were normalized for activity in PCR with matched primers 3, 4 and activity with mismatched primers 1 and 2 (1 μM each) determined at minimal cycle number (15-25 cycles). Extension capability for different mismatches was determined by the same assay using mismatch primers 2 (C•C mismatch), 5 (A•A mismatch), 6 (G•G mismatch), 7 (G•A mismatch) with matched primer 3 or primer 1 (A•G mismatch) with matched primer 4. Incorporation of unnatural substrates in 50 cycle PCR was carried out using standard conditions and 50 μM […] dNTPs (Promega) or 50 μM FITC-12-dATP (Perkin-Elmer), Rhodamine-5-dUTP (Perkin-Elmer) or Biotin-16-dUTP (Roche) with equivalent amounts of the other 3 dNTPs (all 50 μM). Long PCR was carried out using a two-step cycling protocol as described (22) 94° C. for 2 minutes, followed by 20 cycles of (94° C. 15 sec, 68° C. 30 min) using 5 ng of phage λ DNA (New England Biolabs) template and either primers 9, 10, 11 with primer 12 or primer 13 with primers 10, 14.

[2] = PCR with all four dNTPs replaced by αS dNTPs; assay type: biochemical; details: 50 cycle PCR, 50 μM αS dNTPs
Procedure: as §1

[3] = tested on: primer-template DNA substrates; assay: Processivity primer extension assay with and without trap DNA; assay type: biochemical
Procedure: Processivity was measured using a primer extension assay the presence and absence of trap DNA. Termination probabilities were calculated according to the method of Kokoska et al.
Oligonucleotide primer 32 (5′-GCGGTGTAGAGACGAGTGCGGAG-3′) (SEQ ID NO: 117) was ^32P-labelled and annealed to the template 33 (5′-CTCTCACAAGCAGCCAGGCAAGCTCCGCACTCGTCTCTACACCGCTCCGC-3′ (SEQ ID NO: 118)) (at a primer/template ratio of molar 1/1.5). wtTaq (0.0025 nM; 0.025 nM; 0.25 nM), M1(0.05 nM; 0.5 nM; 5 nM), and M4 (0.05 nM; 0.5 nM; 5 nM) were preincubated with the primer-template DNA substrates (10 nM) in 10 mM Tris-HCl at pH 9.0, 5 mM MgCl2, 50 mM KCl, 0.1% Triton X 100 at 25° C. for 15 min. Reactions were initiated by addition of 100 μM dNTPs with or without trap DNA (1000-fold excess of unlabeled primer-templates). Reactions were performed at 60° C. for 2 min. […] Thus, in the presence of trap DNA, all DNA synthesis resulted from a single DNA binding event. Gel band intensities were calculated using a Phosphoimager and ImageQuant (both Molecular Dynamics) software. Percentage of polymerase molecules, which extended primers to the end of the template was calculated using the formula: In×100%/(I1+I2+ . . . +In), where In is the intensity of the band at position 22 or 23; I1, I2 . . . is the intensity of the band at position 1, 2 . . . . Termination probabilities (τ) were calculated according to the method of Kokoska et al^1, whereby t at a particular template position was calculated as the intensity of the band at this position divided by the sum of the intensity of this band and the band intensities of all longer products.

[4] = biological target: matched and mismatched primer-template duplex; assay: Template affinity equilibrium binding assay; details: not shown
Procedure: An equilibrium binding assay (12) was used to determine relative affinity of polymerases for the mismatched primer-templates used in the kinetics assays. Polymerases were preincubated at 60° C. in 1× Taq buffer with 50 nM ^32P-labeled matched primer-template and 50 nM unlabeled mismatched competitor primer-templates. Reactions were initiated by simultaneous addition of dCTP (200 μM) and trap DNA (XbaI/SalI-restricted sheared salmon sperm DNA, 4.5 mg/ml).

[5] = tested on: template containing a cis-syn cyclobutane thymine-thymine dimer (CPD); assay: Translesion replication assay (primer extension), CPD; assay type: biochemical; details: gel-extension assay, 60° C.
Procedure: Template primers 22 (undamaged) or 23 (containing a synthetic abasic site) were synthesized by Lofstrand Laboratories (Gaithersburg, Md.). Template primer 24 (containing a single cis-syn thymine dimer), was synthesized as described (34). Primer 25 was ^32P-labeled and annealed to one of the three templates 22, 23, 24 (at a primer template ratio of molar 1:1.5) and extended in 40 mM Tris.HCl at pH 8.0, 5 mM MgCl2, 100 μM of each dNTP, 10 mM DTT, 250 μg/ml BSA, 2.5% glycerol, 10 nM primer-template DNA and 0.1 Unit of polymerase at 60° C. for various times.
Primer extension assays were essentially as described in (Ghadessy et al., 2004). Briefly, undamaged oligonucleotides and a 51mer containing a synthetic abasic site were synthesized by Lofstrand Laboratories (Gaithersburg, Md.) using standard techniques and were gel purified prior to use. A 20mer primer (LES—20 P) with the sequence 5′-[…]-3′ (SEQ ID NO: 99) was 5′-labeled with [^32P]ATP (5000 Ci/mmole; 1 Ci=37 GBq) (Pharmacia) using T4 polynucleotide kinase (Invitrogen, Carlsbad Calif.). Radiolabeled primer-template DNAs were prepared by annealing the 5′[^32P] labeled 20mer primer to one of the two following 51mer templates (at a primer template ratio of molar 1:1.5). 1) undamaged DNA (UNDT51T); 5′-AGCTACCATGCCTGCACGAATTCGGCATCCGTCGCGACCACGGTCGCAGCG-3′ (SEQ ID NO: 100); 2) an oligo (LABA51T) containing a synthetic abasic site (indicated as an X in bold font); 5′-AGCTACCATGCCTGCACGACA XCG GCATCCGTCGCGACCACGGTCGCAGCG-3′ (SEQ ID NO: 101). Standard replication reactions of 10 contained 40 mM Tris.HCl at pH 8.0, 5 mM MgCl2, 100 μM of each ultrapure dNTP (Amersham Pharmacia Biotech, NJ), 10 mM DTT, 250 μg/ml BSA, 2.5% glycerol, 10 nM 5′[32P] primer-template DNA and 0.1 Unit of polymerase. After incubation at 60° C. for various times reactions were terminated by the addition of 10 μl of 95% formamide/10 mM EDTA and the samples heated to 100° C. for 5 min. Reaction mixtures (5 μl) were subjected to 20% polyacrylamide/7 M Urea gel electrophoresis and replication products visualized by PhosphorImager analysis.

bound polymerase that extended primers to the end of the template ([3]; in the presence of trap DNA (single DNA binding event)): 15%
dissociation constants for matched and mismatched primer-template duplex [4]: indistinguishable
B1: M4: Taq mutant D58G, R74P, A109T, L245R, R343G, G370D, E520G, N583S, E694K, A743P; SEQ ID NO 2 (protein)
chain: MRGMLPLYEPKGRVLLVDGHHLAYRTFHALKGLTTSRGEPVQAVYGFAKSLLKALKEGGDAVIVVFDAKAPSFPHEAYGGYKAGRAPTPEDFPRQLALIKELVDLLGLTRLEVPGYEADDVLASLAKKAEKEGYEVRILTADKDLYQLLSDRIHVLHPEGYLITPAWLWEKYGLRPDQWADYRALTGDESDNLPGVKGIGEKTARKLLEEWGSLEALLKNLDRLKPAIREKILAHMDDLKLSWDRAKVRTDLPLEVDFAKRREPDRERLRAFLERLEFGSLLHEFGLLESPKALEEAPWPPPEGAFVGFVLSRKEPMWADLLALAAARGGRVHRAPEPYKALGDLKEARGLLAKDLSVLALREGLGLPPDDDPMLLAYLLDPSNTTPEGVARRYGGEWTEEAGERAALSERLFANLWGRLEGEERLLWLYREVERPLSAVLAHMEATGVRLDVAYLRALSLEVAEEIARLEAEVFRLAGHPFNLNSRDQLERVLFDELGLPAIGKTEKTGKRSTSAAVLGALREAHPIVEKILQYRELTKLKSTYIDPLPDLIHPRTGRLHTRFNQTATATGRLSSSDPNLQSIPVRTPLGQRIRRAFIAEEGWLLVALDYSQIELRVLAHLSGDENLIRVFQEGRDIHTETASWMFGVPREAVDPLMRRAAKTINFGVLYGMSAHRLSQELAIPYEEAQAFIKRYFQSFPKVRAWIEKTLEEGRRRGYVETLFGRRRYVPDLEARVKSVREPAERMAFNMPVQGTAADLMKLAMVKLFPRLEEMGARMLLQVHDELVLEAPKERAEAVARLAKEVMEGVYPLAVPLEVEVGIGEDWLSAKE
modifications: Mutant Thermus aquaticus DNA polymerase
extension of 3′ transversion mismatches in PCR [1]: greatly increased ability to extend; also recorded: generate amplification products
PCR amplification with all four αS dNTPs [2]: to lesser extent
processivity compared with wtTaq ([3]; even at the lowest enzyme concentrations): processivity equal (or higher) than wtTaq
termination probability ([3]; positions 2 through 5): 13-35%
termination probability ([3]; positions 6 and 7): 2-4%
CPD bypass in primer extension [5]: able to readily extend all of the primer to the 3′T of the dimer
